Read-outs that look alike come from different tables or passages of the source. Blank lines part the entries; values can stand above or below the binder they belong to.
Legend:
Cow serum albumin [1] = biological target: T1, Cow serum albumin (cow, UniProt P02769 25-607); assay: SPR, SA on chip, 1:1 fit, 25 C
T1 construct: bought; immobilised on a CM5 chip by amine coupling; also called Cow SA
Experimental: (§1) Human SA is obtained from Sigma Aldrich (Cat. No. A8763). […] Mouse SA is obtained from Sigma Aldrich (Cat. No. A3139). Rat SA is obtained from Sigma Aldrich (Cat. No. A4538). Pig SA is obtained from Sigma Aldrich (Cat. No. A4414). […] Cow SA is obtained from Sigma Aldrich (Cat. No. A7030). […] Excess reactive groups on the surfaces (flow cell 1 and 2) are deactivated by injecting 70 μl of 1 M Ethanolamine hydrochloride-NaOH pH 8.5.
(§2) 180 μl of sample are individually injected sequentially across the immobilized SAs on the chip's surface and dissociated for 600 sec at 60 μl/min flow rate at 25° C.

Mouse serum albumin [2] = biological target: T2, Mouse serum albumin (mouse, UniProt P07724 25-608); assay: SPR, SA on chip, 1:1 fit, 25 C
T2 construct: bought; immobilised on a CM5 chip by amine coupling; also called Mouse SA
Experimental: as §1, §2

Human serum albumin [3] = biological target: T3, Human serum albumin (human, UniProt P02768 25-609); assay: SPR, SA on chip, 1:1 fit, 25 C
T3 construct: bought; immobilised on a CM5 chip by amine coupling; also called Human SA
Experimental: as §1, §2

Rat serum albumin [4] = biological target: T4, Rat serum albumin (rat, UniProt P02770 25-608); assay: SPR, SA on chip, 1:1 fit, 25 C
T4 construct: bought; immobilised on a CM5 chip by amine coupling; also called Rat SA
Experimental: as §1, §2

Dog serum albumin [5] = biological target: T5, Dog serum albumin (dog, UniProt P49822 25-608); assay: SPR, SA on chip, 1:1 fit, 25 C
T5 construct: bought; immobilised on a CM5 chip by amine coupling; also called Dog SA
Experimental: as §1, §2

Pig serum albumin [6] = biological target: T6, Pig serum albumin (pig, UniProt P08835 25-607); assay: SPR, SA on chip, 1:1 fit, 25 C
T6 construct: bought; immobilised on a CM5 chip by amine coupling; also called Pig SA
Experimental: as §1, §2

[7] = biological target: T7, Cynomolgus monkey serum albumin (cynomolgus monkey, UniProt A2V9Z4 25-608); assay: SPR, SA on chip, 1:1 fit, 25 C
T7 construct: bought; immobilised on a CM5 chip by amine coupling; also called Cyno SA
Experimental: as §1, §2

Rabbit serum albumin [8] = biological target: T8, Rabbit serum albumin (rabbit, UniProt P49065 25-608); assay: SPR, SA on chip, 25 C
T8 construct: bought; immobilised on a CM5 chip by amine coupling; also called Rabbit SA
Experimental: as §1, §2

Cow serum albumin [9] = biological target: T1, Cow serum albumin; assay: SPR, SA on chip, 1:1 fit, 25 C; remark: listed apart in the source
Experimental: as §1, §2

Mouse serum albumin [10] = biological target: T2, Mouse serum albumin; assay: SPR, SA on chip, 1:1 fit, 25 C; remark: listed apart in the source
Experimental: as §1, §2

Human serum albumin [11] = biological target: T3, Human serum albumin; assay: SPR, SA on chip, 1:1 fit, 25 C; remark: listed apart in the source
Experimental: as §1, §2

Rat serum albumin [12] = biological target: T4, Rat serum albumin; assay: SPR, SA on chip, 1:1 fit, 25 C; remark: listed apart in the source
Experimental: as §1, §2

Dog serum albumin [13] = biological target: T5, Dog serum albumin; assay: SPR, SA on chip, 1:1 fit, 25 C; remark: listed apart in the source
Experimental: as §1, §2

Pig serum albumin [14] = biological target: T6, Pig serum albumin; assay: SPR, SA on chip, 1:1 fit, 25 C; remark: listed apart in the source
Experimental: as §1, §2

[15] = biological target: T7, Cynomolgus monkey serum albumin; assay: SPR, SA on chip, 1:1 fit, 25 C; remark: listed apart in the source
Experimental: as §1, §2

[16] = biological target: IL-2 receptor-dimer pair of the PathHunter IL-2 BioAssay cells; assay: cell-based or functional assay
Rabbit serum albumin [17] = biological target: T8, Rabbit serum albumin; assay: SPR, SA on chip, 25 C; remark: listed apart in the source
Experimental: as §1, §2

Rabbit serum albumin [18] = biological target: T8, Rabbit serum albumin; assay: SPR, SA on chip, 25 C; remark: listed apart in the source
Experimental: as §1, §2

Cow serum albumin [19] = biological target: T1, Cow serum albumin; assay: SPR, SA on chip, 1:1 fit, 25 C; remark: listed apart in the source
Experimental: as §1, §2

Mouse serum albumin [20] = biological target: T2, Mouse serum albumin; assay: SPR, SA on chip, 1:1 fit, 25 C; remark: listed apart in the source
Experimental: as §1, §2

Human serum albumin [21] = biological target: T3, Human serum albumin; assay: SPR, SA on chip, 1:1 fit, 25 C; remark: listed apart in the source
Experimental: as §1, §2

Rat serum albumin [22] = biological target: T4, Rat serum albumin; assay: SPR, SA on chip, 1:1 fit, 25 C; remark: listed apart in the source
Experimental: as §1, §2

Dog serum albumin [23] = biological target: T5, Dog serum albumin; assay: SPR, SA on chip, 1:1 fit, 25 C; remark: listed apart in the source
Experimental: as §1, §2

Pig serum albumin [24] = biological target: T6, Pig serum albumin; assay: SPR, SA on chip, 1:1 fit, 25 C; remark: listed apart in the source
Experimental: as §1, §2

[25] = biological target: T7, Cynomolgus monkey serum albumin; assay: SPR, SA on chip, 1:1 fit, 25 C; remark: listed apart in the source
Experimental: as §1, §2

Mouse serum albumin [26] = biological target: T2, Mouse serum albumin; assay: SPR, SA on chip, 1:1 fit, 25 C; remark: listed apart in the source
Experimental: as §1, §2

Human serum albumin [27] = biological target: T3, Human serum albumin; assay: SPR, SA on chip, 1:1 fit, 25 C; remark: listed apart in the source
Experimental: as §1, §2

Rat serum albumin [28] = biological target: T4, Rat serum albumin; assay: SPR, SA on chip, 1:1 fit, 25 C; remark: listed apart in the source
Experimental: as §1, §2

Dog serum albumin [29] = biological target: T5, Dog serum albumin; assay: SPR, SA on chip, 1:1 fit, 25 C; remark: listed apart in the source
Experimental: as §1, §2

Pig serum albumin [30] = biological target: T6, Pig serum albumin; assay: SPR, SA on chip, 1:1 fit, 25 C; remark: listed apart in the source
Experimental: as §1, §2

[31] = biological target: T7, Cynomolgus monkey serum albumin; assay: SPR, SA on chip, 1:1 fit, 25 C; remark: listed apart in the source
Experimental: as §1, §2

Rabbit serum albumin [32] = biological target: T8, Rabbit serum albumin; assay: SPR, SA on chip, 25 C; remark: listed apart in the source
Experimental: as §1, §2

Cow serum albumin [33] = biological target: T1, Cow serum albumin; assay: SPR, SA on chip, 25 C; ka and kd printed as *not applicable
Experimental: as §1, §2

[34] = biological target: human GFRAL and human RET on HEK293 cells (human, UniProt Q6UXV0 19-394; P07949 29-1114); assay: cell-based or functional assay

B2: VHH-based fusion of Example 7, VHH fusion 7 (MC6.1C22-(G4Q)5-IL2) (other)
chain: EVQLLESGGGLVQPGGSLRLSCAASGRYIDETAVAWFRQAPGKEREFVAGIGGGVDITYYADSVKGRFTISRDNSKNTLYLQMNSLRPEDTAVYYCAARPGRPLITSKVADLYPYWGQGTLVTVSSGGGGQGGGGQGGGGQGGGGQGGGGQAPQSSSTQQTQLQLEHLLLDLQMILNGINNYKNPKLTRMLTFKFYMPKKATELKHLQCLEEELKPLEEVLNLAQSKNFHLRPRDLISRINVIVLELKGSETTFMCEYADETATIVEFLNRWITFAQSIISTLT
notes: also called Compound 7; VHH-IL-2 fusion
Kd (Cow serum albumin [9]): 78 nM | koff (Cow serum albumin [9]): 0.052 s⁻¹ | kon (Cow serum albumin [9]): 670000 M⁻¹ s⁻¹ | Kd (Mouse serum albumin [10]): 3.9 nM | koff (Mouse serum albumin [10]): 0.0038 s⁻¹ | kon (Mouse serum albumin [10]): 970000 M⁻¹ s⁻¹ | Kd (Human serum albumin [11]): 0.23 nM | koff (Human serum albumin [11]): 0.00021 s⁻¹ | kon (Human serum albumin [11]): 910000 M⁻¹ s⁻¹ | Kd (Rat serum albumin [12]): 3 nM | koff (Rat serum albumin [12]): 0.0029 s⁻¹ | kon (Rat serum albumin [12]): 970000 M⁻¹ s⁻¹ | Kd (Dog serum albumin [13]): 1.8 nM | koff (Dog serum albumin [13]): 0.0016 s⁻¹ | kon (Dog serum albumin [13]): 920000 M⁻¹ s⁻¹ | Kd (Pig serum albumin [14]): 13 nM | koff (Pig serum albumin [14]): 0.0058 s⁻¹ | kon (Pig serum albumin [14]): 450000 M⁻¹ s⁻¹ | Kd [15]: 0.39 nM | koff [15]: 0.00056 s⁻¹ | kon [15]: 1.4e+06 M⁻¹ s⁻¹ | EC50 (nM), PathHunter IL-2 BioAssay [16]: 0.49 nM | binding result (Rabbit serum albumin [17]): no binding (tested: up to 1000 nM)

B4: VHH-based fusion of Example 5, VHH fusion 5 (MC6.1C22-(G4Q)5-GDF15) (other)
chain: EVQLLESGGGLVQPGGSLRLSCAASGRYIDETAVAWFRQAPGKEREFVAGIGGGVDITYYADSVKGRFTISRDNSKNTLYLQMNSLRPEDTAVYYCAARPGRPLITSKVADLYPYWGQGTLVTVSSGGGGQGGGGQGGGGQGGGGQGGGGQGDHCPLGPGRCCRLHTVRASLEDLGWADWVLSPREVQVTMCIGACPSQFRAANMHAQIKTSLHRLKPDTVPAPCCVPASYNPMVLIQKTDTGVSLQTYDDLLAKDCHCI
notes: also called Compound 5; VHH-GDF15 fusion
Kd (Mouse serum albumin [26]): 0.86 nM | koff (Mouse serum albumin [26]): 0.0012 s⁻¹ | kon (Mouse serum albumin [26]): 1.4e+06 M⁻¹ s⁻¹ | Kd (Human serum albumin [27]): 0.2 nM | koff (Human serum albumin [27]): 0.00014 s⁻¹ | kon (Human serum albumin [27]): 670000 M⁻¹ s⁻¹ | Kd (Rat serum albumin [28]): 0.74 nM | koff (Rat serum albumin [28]): 0.00077 s⁻¹ | kon (Rat serum albumin [28]): 1e+06 M⁻¹ s⁻¹ | Kd (Dog serum albumin [29]): 0.6 nM | koff (Dog serum albumin [29]): 0.00068 s⁻¹ | kon (Dog serum albumin [29]): 1.1e+06 M⁻¹ s⁻¹ | Kd (Pig serum albumin [30]): 3.3 nM | koff (Pig serum albumin [30]): 0.0028 s⁻¹ | kon (Pig serum albumin [30]): 850000 M⁻¹ s⁻¹ | Kd [31]: 0.45 nM | koff [31]: 0.00034 s⁻¹ | kon [31]: 740000 M⁻¹ s⁻¹ | binding result (Rabbit serum albumin [32]): no binding (tested: up to 1000 nM) | Kd (Cow serum albumin [33]): 28 nM | hGFRAL/RET EC50 (pM), p-ERK1/2 AlphaLISA [34]: 101 pM

Results, then the binder that gave them:

Kd (Cow serum albumin [1]): 120 nM | koff (Cow serum albumin [1]): 0.093 s⁻¹ | kon (Cow serum albumin [1]): 800000 M⁻¹ s⁻¹ | Kd (Mouse serum albumin [2]): 18 nM | koff (Mouse serum albumin [2]): 0.01 s⁻¹ | kon (Mouse serum albumin [2]): 560000 M⁻¹ s⁻¹ | Kd (Human serum albumin [3]): 0.15 nM | koff (Human serum albumin [3]): 0.00011 s⁻¹ | kon (Human serum albumin [3]): 720000 M⁻¹ s⁻¹ | Kd (Rat serum albumin [4]): 11 nM | koff (Rat serum albumin [4]): 0.0071 s⁻¹ | kon (Rat serum albumin [4]): 660000 M⁻¹ s⁻¹ | Kd (Dog serum albumin [5]): 5.4 nM | koff (Dog serum albumin [5]): 0.0038 s⁻¹ | kon (Dog serum albumin [5]): 710000 M⁻¹ s⁻¹ | Kd (Pig serum albumin [6]): 27 nM | koff (Pig serum albumin [6]): 0.013 s⁻¹ | kon (Pig serum albumin [6]): 490000 M⁻¹ s⁻¹ | Kd [7]: 0.96 nM | koff [7]: 0.00087 s⁻¹ | kon [7]: 910000 M⁻¹ s⁻¹ | binding result (Rabbit serum albumin [8]): no binding (tested: up to 1000 nM)
B1: VHH-based fusion of Example 8, VHH fusion 8 (GLP1-(G4Q)5-MC6.1C22.43) (other)
chain: HGEGTFTSDVSSYLEEQAAKEFIAWLVKGGGGGGGQGGGGQGGGGQGGGGQGGGGQEVQLLESGGGLVQPGGSLRLSCAASGRYIDETAVAWFRQAPGKEREFVAGIGGGVDITYYADSVKGRFTISRDNSKNTLYLQMNSLRPEDTAVYYCAARPGRPLITSKVADLYPYWGQGTLVTVSSPP
notes: also called Compound 8; GLP-1-VHH fusion

binding result (Rabbit serum albumin [18]): no binding (tested: up to 1000 nM) | Kd (Cow serum albumin [19]): 380 nM | koff (Cow serum albumin [19]): 0.071 s⁻¹ | kon (Cow serum albumin [19]): 190000 M⁻¹ s⁻¹ | Kd (Mouse serum albumin [20]): 50 nM | koff (Mouse serum albumin [20]): 0.0087 s⁻¹ | kon (Mouse serum albumin [20]): 170000 M⁻¹ s⁻¹ | Kd (Human serum albumin [21]): 1.5 nM | koff (Human serum albumin [21]): 0.00026 s⁻¹ | kon (Human serum albumin [21]): 180000 M⁻¹ s⁻¹ | Kd (Rat serum albumin [22]): 34 nM | koff (Rat serum albumin [22]): 0.0066 s⁻¹ | kon (Rat serum albumin [22]): 190000 M⁻¹ s⁻¹ | Kd (Dog serum albumin [23]): 19 nM | koff (Dog serum albumin [23]): 0.0034 s⁻¹ | kon (Dog serum albumin [23]): 170000 M⁻¹ s⁻¹ | Kd (Pig serum albumin [24]): 100 nM | koff (Pig serum albumin [24]): 0.012 s⁻¹ | kon (Pig serum albumin [24]): 120000 M⁻¹ s⁻¹ | Kd [25]: 5 nM | koff [25]: 0.00088 s⁻¹ | kon [25]: 180000 M⁻¹ s⁻¹ | EC50 (nM), PathHunter IL-2 BioAssay [16]: 6.7 nM
B3: VHH-based fusion of Example 6, VHH fusion 6 (IL2-(G4Q)5-MC6.1C22.43) (other)
chain: APQSSSTQQTQLQLEHLLLDLQMILNGINNYKNPKLTRMLTFKFYMPKKATELKHLQCLEEELKPLEEVLNLAQSKNFHLRPRDLISRINVIVLELKGSETTFMCEYADETATIVEFLNRWITFAQSIISTLTGGGGQGGGGQGGGGQGGGGQGGGGQEVQLLESGGGLVQPGGSLRLSCAASGRYIDETAVAWFRQAPGKEREFVAGIGGGVDITYYADSVKGRFTISRDNSKNTLYLQMNSLRPEDTAVYYCAARPGRPLITSKVADLYPYWGQGTLVTVSSPP
notes: also called Compound 6; IL-2-VHH fusion

Source: patent US20240316154A1 (Eli Lilly, published 2024)
